Data reported in patent CN112500481A (SHANXI PROVINCIAL PEOPLES HOSPITAL, dated 2021).

Tests used:
新冠病毒RBD抗原 (表达的RBD蛋白) = 新冠病毒RBD抗原 (表达的RBD蛋白) (SARS-CoV-2, UniProt P0DTC2 319-541)
RBD-tag1 = RBD-tag1 (SARS-CoV-2, UniProt P0DTC2 319-541)

B1: 23D52 (antibody, V domains shown)
VH: EVQLVESGGGLVQPGGSLRLSCAASGITVSSNYMNWVRQAPGKGLEWVSVLYSGGSTDYADSVKGRFTISRDNSKNTLYLQMNSLRAEDTAVYYCARDLVVYGMDVWGQGTTVTVSS
VL: DIQLTQSPSFLSASVGDRVTITCRASQGISSYLAWYQQTPGKAPKLLIYAASTLQSGVPSRFSGSGSGTEFTLTISSLQPEDFATYYCQQLNSYPFTFGPGTKVHIK
notes: also called 抗人新冠病毒抗体23D52
EC50 (新冠病毒RBD抗原 (表达的RBD蛋白)): 0.0299 mg/L
IC50 (RBD-tag1): 0.111 mg/L
